Test results from article PMC5216073, “Architecture and mechanism of the late endosomal Rab7-like Ypt7 guanine nucleotide exchange factor complex Mon1–Ccz1” (Nature Communications, 2017).

T1: CtMon1, full length (Chaetomium thermophilum Mon1) (Chaetomium thermophilum, UniProt G0SGS3 1-665)
T1 construct: Mon1 of Chaetomium thermophilum, NCBI XP_006697030; C-terminal domain printed as aa 486-665; GST cleaved with PreScission protease; source: E. coli Rosetta (DE3), co-expressed with CtCcz1, purified (glutathione column, size exclusion chromatography); not shown: GST, N-terminal, cleaved
T1 sequence (looked up): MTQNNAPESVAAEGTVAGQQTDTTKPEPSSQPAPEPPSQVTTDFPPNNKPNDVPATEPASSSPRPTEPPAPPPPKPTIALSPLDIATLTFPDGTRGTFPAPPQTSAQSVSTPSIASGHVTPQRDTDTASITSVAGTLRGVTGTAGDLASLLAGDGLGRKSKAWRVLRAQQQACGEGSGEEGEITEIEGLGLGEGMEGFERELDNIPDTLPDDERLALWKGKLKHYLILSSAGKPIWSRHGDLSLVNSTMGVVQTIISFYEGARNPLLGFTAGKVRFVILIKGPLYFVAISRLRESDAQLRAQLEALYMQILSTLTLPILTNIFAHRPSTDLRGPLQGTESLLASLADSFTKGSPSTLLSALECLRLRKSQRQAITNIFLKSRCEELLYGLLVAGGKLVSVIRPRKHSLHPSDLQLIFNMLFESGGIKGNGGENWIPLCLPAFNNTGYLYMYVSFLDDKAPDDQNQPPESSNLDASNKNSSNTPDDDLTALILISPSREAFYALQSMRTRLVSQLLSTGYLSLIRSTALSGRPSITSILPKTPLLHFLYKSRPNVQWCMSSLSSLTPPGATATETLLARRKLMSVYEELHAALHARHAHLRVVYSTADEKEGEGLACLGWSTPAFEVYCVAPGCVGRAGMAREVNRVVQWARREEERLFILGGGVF

B1: full-length CtMC1 complex (CtMon1-CtCcz1) (complex, Chaetomium thermophilum)
chain 1: T1 sequence (looked up)
chain 2: MTTPVSPSPSGIIPAQLGFLAIYNPALGTTDETLEDQIVYYATASTLSQARRRHRRPRRRDRQRAQSVVKDSRPNAAGATGDSEAVAEDKDPVSKEERHERLRQIGLAQGMVEFAKSFSDGEPVDTIDTEKARVILVEVEEGWWILASIDLTRLPLPQIKTPTSSSAPPPAPNLNPLPPEPAYEYSSREVKPPSLLRADLLRAYDLFLLHHGSSLSSLLASQGRAQLVASLTRFWDHFLATWNVLLHGNPACDVFGGIKLAASGELGIGVGEEERGSGEREVLEGLVERVEGLVDVVVGRYGGPPSEKGPEEEQWLGLGGEVGEEDGAVFLGVGALDRKSLRGVVQWMEEVYVWGENAFGVGGSRAARRRRKRGAKESRVLKTGAGKKIPIGTGTGTEGKRGEAATPDMAGTPGSMDKLFSYLTLGYGTSWSLGLSGTSTPSDSDPGSVSKGMVESSESGKPRRDLSTGHFLLGLSECSEEELTSSQANPKAIFVELKPSYQHPSRKIPPEDPQPLGKVGPELPRDHTARLRPVIYVSQPFIYILLFSEITPSPSTWPTLAESLHAQLSPLQKPLLHSTSYRPERPVVETTSSSGTTTQHQIFDLVYDTETLTLQSTIPNIPDPFPYSATTPTGHSTGQQHHQQSIWTRVEALQTHAQILAILSSGRAIPTDPSSFTHLPWEEGERTCKTARGWWIVWTRVVEHSPPDAVSLHHARDDDDNDDDASCSVLGHLRSVSSSHAAGSTSSSSGSGFGLGAIPGLGGLGGWAADGATRLAQGIGIDTRRYVEGLLTSLGR
notes: Mon1 of Chaetomium thermophilum, NCBI XP_006697030; codon-optimized synthetic gene; Ccz1 of Chaetomium thermophilum, NCBI XP_006695440; The Mon1-Ccz1 heterodimer forms a dimer of heterodimers (two copies of each protein); the rows of m3 with itself mean the association of two heterodimers; also called CtMC1full; Mon1-Ccz1 complex; source: E. coli Rosetta (DE3), co-expressed, purified (glutathione …)
B2: CtCcz1, full length (Chaetomium thermophilum Ccz1) (natural protein, UniProt G0SD94 1-796, looked up)
chain: B1 chain 2
notes: Ccz1 of Chaetomium thermophilum, NCBI XP_006695440; C-terminus printed as residues 250-796; His6-SUMO cleaved with SUMO protease; source: E. coli Rosetta (DE3), co-expressed with CtMon1, purified (glutathione column, size exclusion chromatography); not shown: His6, N-terminal, cleaved; SUMO, N-terminal, cleaved

Experiments:
[1] = molecular target: the molecule itself; test: SEC; gel filtration of the full-length CtMC1 complex, co-expressed in E. coli and purified on a glutathione column by GST-CtMon1, tags cleaved
[2] = molecular target: CtYpt7 wild type (Chaetomium thermophilum Ypt7) (Chaetomium thermophilum); test: cell-based or functional assay
[3] = molecular target: T1, CtMon1, full length (Chaetomium …); test: SEC; gel filtration of the full-length CtMC1 complex, co-expressed in E. coli and purified on a glutathione column by GST-CtMon1, tags cleaved; settings: both partners purified

Binder | stoichiometry N [1] | kcat/KM of MC1-stimulated exchange of MANT-GDP for GTP on Ypt7 (fluorescence GEF assay, 0-2.0 μM CtMC1, 25 °C) [2] [M⁻¹ s⁻¹] | stoichiometry N [3]
B1 | 2 | 21000 | –
B2 | – | – | 1
